Test results: patent US11278600B2, “Human alpha-galactosidase variants” (Codexis, Inc., priority 2014, dated 2022)

B1: 577 (protein)
chain: LDNGLARTPTMGWLHWERFMCNLDCQEEPDSCISEKLFMEMAERMVSEGWKDAGYEYLCIDDCWMAPQRDSEGRLQADPQRFPHGIRQLANHVHSKGLKLGIYADVGNKTCAGFPGSFGYYDIDAQTFADWGVDLLKFDGCYCDSLENLADGYKHMSLALNRTGRSIVYSCEWPLYMWPFQKPNYTEIRQYCNHWRNFADIDDSWASIKSILDWTSRNQERIVDVAGPGGWNDPDMLVIGNFGLSADQQVTQMALWAIMAAPLFMSNDLRHISPQAKALLQDKDVIAINQDPLGKQGYQLRKGDNFEVWERPLSGDAWAVAIINRQEIGGPRSYTIPVASLGKGVACNPACFITQLLPVKRQLGFYNWTSRLKSHINPTGTVLLQLENTMQMSLKDLL
modifications: Synthetic Polypeptide sequence of Variant No. 577 of mature Human GLA
B2: 579 (protein)
chain: LDNGLARTPTMGWLHWERFMCNLDCQEEPDSCISEKLFMEMAERMVSEGWKDAGYEYLCIDDCWMAPQRDSEGRLQADPQRFPHGIRQLANHVHSKGLKLGIYADVGNKTCAGFPGSFGYYDIDAQTFADWGVDLLKFDGCYCDSLENLADGYKHMSLALNRTGRSIVYSCEWPLYMWPFQKPNYTEIRQYCNHWRNFADIDDSWASIKSILDWTSRNQERIVDVAGPGGWNDPDMLVIGNFGLSPDQQVTQMALWAIMAAPLFMSNDLRHISPQAKALLQDKDVIAINQDPLGKQGYQLRKGDNFEVWERPLSGDAWAVAIINRQEIGGPRSYTIPVASLGKGVACNPACFITQLLPVKRQLGFYNWTSRLKSHINPTGTVLLQLENTMQMSLKDLL
modifications: Synthetic Polypeptide sequence of Variant No. 579 of mature Human GLA
B3: 578 (protein)
chain: LDNGLARTPTMGWLHWERFMCNLDCQEEPDSCISEKLFMEMAERMVSEGWKDAGYEYLCIDDCWMAPQRDSEGRLQADPQRFPHGIRQLANHVHSKGLKLGIYADVGNKTCAGFPGSFGYYDIDAQTFADWGVDLLKFDGCYCDSLENLADGYKHMSLALNRTGRSIVYSCEWPLYMWPFQKPNYTEIRQYCNHWRNFADIDDSWASIKSILDWTSRNQERIVDVAGPGGWNDPDMLVIGNFGLSIDQQVTQMALWAIMAAPLFMSNDLRHISPQAKALLQDKDVIAINQDPLGKQGYQLRKGDNFEVWERPLSGDAWAVAIINRQEIGGPRSYTIPVASLGKGVACNPACFITQLLPVKRQLGFYNWTSRLKSHINPTGTVLLQLENTMQMSLKDLL
modifications: Synthetic Polypeptide sequence of Variant No. 578 of mature Human GLA

Assays:
Type in all cases: biochemical
[1] = HTP-analysis of yeast culture supernatants, no challenge (MUGal hydrolysis); conditions: activity of the variant/activity of Rd3BB (SEQ ID NO: 13)
Summary of the method: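 Activity read as 4-methylumbelliferyl α-D-galactopyranoside hydrolysis: fluorescence (355/448 nm) after sodium carbonate stop, following 30-180 min at 37° C with 2 mM MUGal stock at pH 4.6–4.8. Enzyme source is unchallenged culture supernatant of INVSc1 yeast expressing GLA variants, grown 66-84 h at 30° C.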

[2] = HTP-analysis of supernatants pretreated with acid (MUGal hydrolysis); conditions: activity of the variant/activity of Rd3BB (SEQ ID NO: 13); challenge at pH 3.7
Summary of the method: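 GLA variants were secreted from INVSc1 yeast grown 66-84 h at 30° C. in SD-Ura with 2% glucose; supernatants were mixed with McIlvaine buffer pH 3.3-4.3 and held at 37° C. for 1-3 h. Residual activity on MUGal at pH 4.8 was then measured by fluorescence.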

[3] = HTP-analysis of supernatants pretreated with base (MUGal hydrolysis); conditions: activity of the variant/activity of Rd3BB (SEQ ID NO: 13); challenge at pH 9.7
Summary of the method: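 Fluorescence of released 4-MU (Ex 355 nm, Em 448 nm) after carbonate quench reports MUGal hydrolysis by GLA variants secreted from INVSc1 yeast. Before the acidic (pH 4.3-4.8) 30-180 min reaction at 37° C, supernatants had been pre-incubated at pH 7.0-9.7 for 1-18 h at 37° C.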

Molecule | Relative Activity of GLA Variants After No Challenge (NC) [1] | Relative Activity of GLA Variants After Challenge at pH 3.7 [2] | Relative Activity of GLA Variants After Challenge at pH 9.7 [3]
B1 | + (+ = 1.5 to 5 relative activity over Rd3BB (SEQ ID NO: 13)) | +++ (+++ = >10 relative activity over Rd3BB (SEQ ID NO: 13)) | ++ (++ = >5 to 10 relative activity over Rd3BB (SEQ ID NO: 13))
B2 | + (+ = 1.5 to 5 relative activity over Rd3BB (SEQ ID NO: 13)) | +++ (+++ = >10 relative activity over Rd3BB (SEQ ID NO: 13)) | ++ (++ = >5 to 10 relative activity over Rd3BB (SEQ ID NO: 13))
B3 | + (+ = 1.5 to 5 relative activity over Rd3BB (SEQ ID NO: 13)) | +++ (+++ = >10 relative activity over Rd3BB (SEQ ID NO: 13)) | ++ (++ = >5 to 10 relative activity over Rd3BB (SEQ ID NO: 13))
